Experimental data published in patent US7419813B2, “Fructosyl peptide oxidase” (Kikkoman Corporation, priority 2001, dated 2008).

Legend:
Type in all cases: biochemical
[1] = Reaction with products obtained by digesting α-glycated hexapeptide with protease (96-well plate, 510 nm); conditions: purified enzyme; compared to 100% activity for fructosyl glycine; monitored at 510 nm for 70 minutes
Text: Glycated hemoglobin (HbA1c) may be treated with endoproteinase Glu-C to liberate α-glycated hexapeptide (fructosyl Val-His-Leu-Thr-Pro-Glu) from the glycated hemoglobin β-chain (Clin. Chem., 43; 10 1944-1951, 1997). Fructosyl Val-His-Leu-Thr-Pro-Glu (available from PEPTIDE INSTITUTE, INC), which is the same substance as the α-glycated hexapeptide, was used in the following experiment.
α-glycated hexapeptide (fructosyl Val-His-Leu-Thr-Pro-Glu, MW=856, available from PEPTIDE INSTITUTE, INC) (3.434 mg) was dissolved in 0.2 ml of water.
Molsin (15 mg, available from Kikkoman Corp.) was dissolved in 0.2 ml of buffer (10 mM acetate buffer, pH 3.0)
A (100 μl), B (5 μl) and C (5 μl) were mixed in a microtube and incubated at 37° C. for 17 hours. The reaction solution was then filtered using Microcon 10 (available from Amicon) to remove protease.
Developer solution consisted of the following materials:
• (a) Enzyme purified from Achaetomiella virescens ATCC 32393 • (b) Enzyme purified from Eupenicillium terrenum ATCC 18547 • (c) Enzyme purified from Coniochaeta sp. […]
Reaction substrate (D: a, b) (20 μl), developer solution (E) (20 μl) and the inventive oxidase (F: a-d) (10 μl) were mixed in 96-well assay plates for reaction. Each plate was monitored at 510 nm using a plate reader (Immuno Mini NJ-2300, available from Nalge Nunc International K. K.) for 70 minutes. […]

[2] = Enzyme activity assay (hydrogen peroxide, POD-4-AA colour at 510 nm), fructosyl valyl histidine substrate; conditions: for Substrate specificity (% relative activity) FVH / Activity per medium: crude enzyme sample; for action on fructosyl valyl histidine and ε-fructosyl lysine (in words): crude enzyme samples of Tables 1 and 2
Text: Enzyme activities of the oxidase of the invention and the oxidase of the invention that have less action on ε-fructosyl lysine (hereinafter, the term “the oxidases of the invention” may comprise both the oxidase of the invention and the oxidase of the invention that have less action on ε-fructosyl lysine) may principally be determined by determining the amount of α-ketoaldehyde, peptide, hydrogen peroxide or the like which are produced through enzyme reaction or by determining the amount of oxygen consumed by the enzyme reaction. Hereinafter, a method for determining the amount of hydrogen peroxide will be described as one example. Unless otherwise noted, fructosyl valyl histidine is used as a substrate for determining the activities of the oxidases of the invention. Titer of the enzyme is defined such that an amount of enzyme for producing 1 μmol hydrogen peroxide per minute is 1U as determined using a fructosyl valyl histidine substrate. 1.0 kU of peroxidase (Toyobo Co., Ltd, TYPE III) and 100 mg of 4-aminoantipyrine (Tokyo Kasei Kogyo Co., Ltd.) are dissolved in 0.1 M potassium phosphate buffer (pH 8.0) to a constant volume of 1L. 25 ml of a commercially available 2% solution (available from Nacalai Tesque, Inc.) is dissolved in ion exchange water to a constant volume of 100 ml. 624 mg of fructosyl valyl histidine is dissolved in ion exchange water to a constant volume of 10 ml. Alternatively, fructosyl glycine or ε-fructosyl lysine of 357 mg or 462 mg, respectively, may be dissolved in ion exchange water to a constant volume of 10 ml to be used as a substrate. Fructosyl valine histidine was prepared as described in Japanese Patent Application Laid-Open (kohyo) No. 2001-95598. Fructosyl glycine and ε-fructosyl lysine were prepared according to a method of Horiuchi et al. (Agric. Biol. Chem., 53, 103-110, 1989; Agric. Biol. Chem., 55, 333-338, 1991). 2.7 ml of Reagent 1, 100 μl of Reagent 2 and 100 μl of enzyme solution are mixed and pre-heated at 30° C. for 5 minutes. Then, 100 μl of Reagent 3 is added and thoroughly mixed to determine absorbance at 510 nm using a spectrophotometer (U-[…], Hitachi, Ltd.). Measurement values indicate changes in the absorbance per minute at 510 nm after 1 to 3 minutes. A control solution was prepared in the same manner as described above except 100 μl ion exchange water was added instead of 100 μl Reagent 3. A standard solution of hydrogen peroxide and ion exchange water were used instead of Reagent 3 and the enzyme solution, respectively, to prepare a graph showing relationship with respect to the level of color. Referring to this graph, micromole of hydrogen peroxide produced per minute at 30° C. is calculated and used as the unit for expressing the activity of the enzyme solution. The presence of action on ε-fructosyl lysine can be determined in the same manner by using Reagent 3 (substrate solution) containing ε-fructosyl lysine substrate instead of fructosyl valyl histidine substrate.

[3] = Optimum pH of the enzyme reaction; conditions: purified oxidase, 30° C.; for optimum pH (range): relative activities of 70% or higher
Procedure: For example, 200 mM acetic acid buffer (pH 3.0-6.0), 200 mM MES-NaOH (pH 6.0-7.0), 200 mM Tris buffer (pH 6.8-9.0), 200 mM potassium phosphate buffer (pH 6.5-8.0) and 200 mM glycine buffer (pH 8.0-12.0) are used as buffers to perform enzyme reactions at the indicated pH at 30° C., thereby determining optimal pH. For example, the oxidases of the invention may have an optimal pH at 5.0-9.0, preferably pH 6.0-8.0. For example, 200 mM acetic acid buffer (pH 3.0-6.0), 200 mM MES-NaOH (pH 6.0-7.0), 200 mM Tris buffer (pH 6.8-9.0), 200 mM potassium phosphate buffer (pH 6.5-8.0) and 200 mM glycine buffer (pH 8.0-12.0) are used as buffers to perform enzyme reactions at the indicated pH at 30° C., thereby determining optimal pH. For example, the oxidases of the invention that have less action on ε-fructosyl lysine may have an optical pH at 5.0-9.0, preferably at 6.0-8.0. Enzyme reaction was monitored in 200 mM acetic acid buffer (pH 3.0-6.0), 200 mM MES-NaOH (pH 6.0-7.0), 200 mM Tris buffer (pH 6.8-9.0), 200 mM potassium phosphate buffer (pH 6.5-8.0) or 200 mM glycine buffer (pH 8.0-12.0) at the indicated pH values at 30° C. […] Enzyme reaction was monitored in 200 mM acetic acid buffer (pH 4.0-6.0), 200 mM MES-NaOH (pH 6.0-7.0), 200 mM Tris buffer (pH 7.0-8.5), 200 mM potassium phosphate buffer (pH 6.0-8.0) or 200 mM glycine buffer (pH 8.0-9.0) at the indicated pH values at 30° C.

[4] = relative to activity for ε-fructosyl lysine (100%)
[5] = strain cultured on enzyme inducible medium 1 at 30° C. for 4 days, Tables 1 and 2

| Activity per medium [2, 5] [U/L] | pH of maximum activity (most preferable pH) [3] [pH] | Activity per medium ([2]; Eupenicillium strains on enzyme induction media 1 at 30° C. for 4 days, Table 3) [U/L] | Molecule | % relative activity on protease-digested α-glycated hexapeptide [1] [%] | Substrate specificity (% relative activity) FVH [2, 4] [%] | action on fructosyl valyl histidine and ε-fructosyl lysine (in words) [2] | optimum pH (range) [3] | Substrate specificity (% relative activity) FVH ([2]; reference substrate set to 100%) [%] |
| --- | --- | --- | --- | --- | --- | --- | --- | --- |
| 70.1 | 7.0 | – | Coniochaeta sp. NISL 9330: fructosyl peptide oxidase produced by Coniochaeta sp. NISL 9330 (FERM BP-7798) with less action on ε-fructosyl lysine; amino acid sequence SEQ ID NO: 1 (protein, listed as Coniochaeta sp.) MTSNRADTRVIVVGGGGTIGSSTALHLVRSGYAPANITVLDTFEIPSAQSAGHDLNKIMGIRLRNKVDLQMSLEARQMWKEDELFQPFFHNTGRMDCEHTPEGIEDLKKQYQALHDAGAGLEKTHAWLDNEDEILSKMPLLQRDQIQGWKAIWSQDGGWLAAAKAINAIGQFLKERGVKFGFGGAGSFKQPLFDDEGTTCIGVETADGTKYYADKVVLAAGAWSPTLVDLEDQCCSKAWVYAHIQLTPEEAAEYKGVPVVYNGEFGFFFEPNEFGVIKVCDEFPGFSRFKEHQPYGAPSPKHISVPRSHAKHPTDTYPDASEVSIKKAIATFLPRFQDKELFNRALCWCTDTADAALLMCEHPKWKNFILATGDSGHSFKILPNVGKHVVELIEGRLPEEMAYQWRWRPGGDALKSRRAAPPKDLADMPGWKHDPKL | 10.0 | 165 | acted well on fructosyl valyl histidine but less on ε-fructosyl lysine | 6.0-8.0 pH | – |
| 2.8 | 7.0 | 2.8 | Eupenicillium terrenum ATCC 18547: fructosyl peptide oxidase produced by Eupenicillium terrenum ATCC 18547 with less action on ε-fructosyl lysine; amino acid sequence SEQ ID NO: 3 (protein, listed as Eupenicillium terrenum) MAHSRASTKVVVVGGGGTIGSSTALHLIRSGYTPSNITVLDVYKTPSLQSAGHDLNKIMGIRLRNGPDLQLSLESLDMWQNDELFKPFFHQVGMIDCSSSKEGIENLRRKYQTLLDAGIGLEKTNVWLESEDEILAKAPNFTREQVKGWKGLFCTDGGWLAAAKAINAIGIFLQDKGVKFGFGGAGTFQQPLFAADGKTCIGLETTDGTKYFADKVVLAAGAWSPTLVDLEDQCVSKAWVFAHIQLTPKEADAYKNVPVVYDGEYGFFFEPNEYGVIKVCDEFPGFSRFKLHQPYGAASPKMISVPRSHAKHPTDTYPDASEVTIRKAIARFLPEFKDKELFNRTMCWCTDTADANLLICEHPKWKNFILATGDSGHSFKLLPNIGKHVVELLEGSLSQEMAGAWRWRPGGDALRSRRGAPAKDLAEMPGWKHDAHL | 9.5 | 1023 | acted well on fructosyl valyl histidine but less on ε-fructosyl lysine | 6.0-8.0 pH | 100 |
